For this data set, the system named is MBP-p33C (C-terminal soluble portion of p33 replication protein) (Tomato bushy stunt virus). The data set is described as follows: biotin-RNA pull-down, anti-p33 immunoblot. The note with it: EMSA: 10 mM HEPES pH 7.4, 50 mM NaCl, 1 mM DTT, 1 mM EDTA, 5% glycerol, 2.5 mM MgCl2, 0.1 ug tRNA, 2 U RNase inhibitor, 10 ul, 0.1 pmol RNA (EMSA temperature …). For orientation: Mobility shift assays separate free from complexed probe on a gel.

Turning to RII(+), the binding signal (% of MBP control) amounted to 50.

The values are drawn from paper PMC6555533.
